Usually Kd stands for the concentration at which binding is half-saturated.

Drawing on US20230114801A1 (SYSTIMMUNE, published 2023), this text covers Kd for three molecules.

The labels stand for the following.
B1: human CD3 (receptor)
chain 1: DGNEEMGGITQTPYKVSISGTTVILTCPQYPGSEILWQHNDKNIGGDEDDKNIGSDEDHLSLKEFSELEQSGYYVCYPRGSKPEDANFYLYLRARVCENCMEMD
chain 2: FKIPIEELEDRVFVNCNTSITWVEGTVGTLLSDITRLDLGKRILDPRGIYRCNGTDIYKDKESTVQVHYRMCQSCVELDPATVA
notes: also called His-tagged human CD3; human CD3 (Acro CDD-H52W1)

Assay [1] addresses T1, SI-49P9.
T1 construct: penta-miniGNC; D1 αCD3, D2 αCD19, D3 NKG2D receptor dimer, D4 41BBL, D5 αPD-L1
Kind of assay: BLI (Octet); conditions not stated. A general note: In BLI a coated tip is dipped into the sample, and binding shifts an interference pattern.

In assay [2] the target is T2, SI-75P4.
T2 construct: penta-miniGNC; D1 αEGFR, D2 αHER3, D3 αCD3 (Fab), D4 41BBL (ligand of the 4-1BB receptor), D5 αPD-L1
T2 sequence (chain, as listed by the source): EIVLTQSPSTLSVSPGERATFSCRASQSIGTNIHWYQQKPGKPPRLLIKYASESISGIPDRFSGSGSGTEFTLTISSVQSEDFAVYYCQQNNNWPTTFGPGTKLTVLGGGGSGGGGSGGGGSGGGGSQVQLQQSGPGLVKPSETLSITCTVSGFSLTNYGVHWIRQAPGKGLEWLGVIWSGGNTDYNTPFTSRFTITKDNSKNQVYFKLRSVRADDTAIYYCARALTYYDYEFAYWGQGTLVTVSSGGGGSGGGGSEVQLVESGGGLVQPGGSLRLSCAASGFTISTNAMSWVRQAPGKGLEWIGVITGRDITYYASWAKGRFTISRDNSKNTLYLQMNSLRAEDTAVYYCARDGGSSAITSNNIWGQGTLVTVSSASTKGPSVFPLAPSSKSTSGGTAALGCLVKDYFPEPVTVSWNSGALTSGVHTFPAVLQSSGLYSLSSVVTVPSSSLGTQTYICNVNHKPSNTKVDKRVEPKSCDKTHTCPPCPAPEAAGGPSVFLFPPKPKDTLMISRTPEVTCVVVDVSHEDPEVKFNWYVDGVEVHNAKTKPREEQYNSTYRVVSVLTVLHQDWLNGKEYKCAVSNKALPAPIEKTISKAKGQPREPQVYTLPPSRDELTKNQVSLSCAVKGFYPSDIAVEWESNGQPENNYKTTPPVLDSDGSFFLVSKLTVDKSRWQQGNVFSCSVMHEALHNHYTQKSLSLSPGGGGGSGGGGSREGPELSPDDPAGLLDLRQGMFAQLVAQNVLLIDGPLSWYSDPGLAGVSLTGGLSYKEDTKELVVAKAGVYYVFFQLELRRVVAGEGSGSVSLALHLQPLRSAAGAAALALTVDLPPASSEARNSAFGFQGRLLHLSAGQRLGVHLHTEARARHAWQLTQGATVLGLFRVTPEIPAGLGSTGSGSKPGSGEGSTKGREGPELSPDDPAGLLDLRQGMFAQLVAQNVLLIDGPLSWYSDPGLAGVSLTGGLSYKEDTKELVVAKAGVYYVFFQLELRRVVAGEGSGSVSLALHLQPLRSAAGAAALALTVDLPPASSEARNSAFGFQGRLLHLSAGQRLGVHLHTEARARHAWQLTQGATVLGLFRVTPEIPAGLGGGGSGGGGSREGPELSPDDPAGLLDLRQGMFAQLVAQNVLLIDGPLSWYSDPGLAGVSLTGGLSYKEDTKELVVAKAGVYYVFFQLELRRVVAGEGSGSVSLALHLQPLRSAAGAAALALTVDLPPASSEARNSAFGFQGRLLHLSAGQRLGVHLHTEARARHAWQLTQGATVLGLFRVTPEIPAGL
Put plainly: BLI (Octet), binder on AHC sensor, 100 nM human antigen, 1:1 fit.

Assay [3] has as its target B1. Kind of assay: BLI (Octet), binder on AHC sensor, 100 nM human CD3, 1:1 fit.
Assay [4] has as its target T3, human PD-L1 (human, UniProt Q9NZQ7 19-238).
T3 construct: Soluble antigen in Octet; bought; also called human PD-L1 (Acro PD1-H5229)
Put plainly: BLI (Octet), binder on AHC sensor, 20 nM human PD-L1, 1:1 fit.

Assay [5] has as its target T4, human EGFR (human, UniProt P00533 25-645, limits assumed).
T4 construct: Soluble antigen in Octet; construct not described
Put plainly: BLI (Octet), binder on AHC sensor, 200 nM human EGFR, 1:1 fit.

In assay [6] the target is T5, human 4-1BB (human, UniProt Q07011 24-186, limits assumed).
T5 construct: Soluble antigen in Octet; construct not described
Put plainly: BLI (Octet), binder on AHC sensor, 400 nM human 4-1BB, 1:1 fit.

For assay [7], the target named is B1. Put plainly: BLI (Octet); conditions not stated.
Assay [8] concerns the target T5, human 4-1BB. Put plainly: BLI (Octet); conditions not stated.
In assay [9] the target is T3, human PD-L1. Kind of assay: BLI (Octet); conditions not stated.
Assay [10] addresses T6, CD19 (UniProt P15391 20-291, limits assumed).
T6 sequence (looked up): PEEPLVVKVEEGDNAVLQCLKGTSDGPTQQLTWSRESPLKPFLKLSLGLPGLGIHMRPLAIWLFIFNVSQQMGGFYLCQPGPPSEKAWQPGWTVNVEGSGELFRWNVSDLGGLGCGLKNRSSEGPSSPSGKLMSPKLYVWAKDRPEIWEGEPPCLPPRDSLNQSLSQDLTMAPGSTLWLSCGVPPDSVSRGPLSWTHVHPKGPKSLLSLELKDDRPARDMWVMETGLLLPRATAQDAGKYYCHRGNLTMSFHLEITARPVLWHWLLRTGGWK
Kind of assay: BLI (Octet); conditions not stated.

Assay [11] concerns the target NKG2D ligand. Kind of assay: BLI (Octet); conditions and ligand not stated.

T1 sequence (chain, as listed by the source, chain 1 of 2): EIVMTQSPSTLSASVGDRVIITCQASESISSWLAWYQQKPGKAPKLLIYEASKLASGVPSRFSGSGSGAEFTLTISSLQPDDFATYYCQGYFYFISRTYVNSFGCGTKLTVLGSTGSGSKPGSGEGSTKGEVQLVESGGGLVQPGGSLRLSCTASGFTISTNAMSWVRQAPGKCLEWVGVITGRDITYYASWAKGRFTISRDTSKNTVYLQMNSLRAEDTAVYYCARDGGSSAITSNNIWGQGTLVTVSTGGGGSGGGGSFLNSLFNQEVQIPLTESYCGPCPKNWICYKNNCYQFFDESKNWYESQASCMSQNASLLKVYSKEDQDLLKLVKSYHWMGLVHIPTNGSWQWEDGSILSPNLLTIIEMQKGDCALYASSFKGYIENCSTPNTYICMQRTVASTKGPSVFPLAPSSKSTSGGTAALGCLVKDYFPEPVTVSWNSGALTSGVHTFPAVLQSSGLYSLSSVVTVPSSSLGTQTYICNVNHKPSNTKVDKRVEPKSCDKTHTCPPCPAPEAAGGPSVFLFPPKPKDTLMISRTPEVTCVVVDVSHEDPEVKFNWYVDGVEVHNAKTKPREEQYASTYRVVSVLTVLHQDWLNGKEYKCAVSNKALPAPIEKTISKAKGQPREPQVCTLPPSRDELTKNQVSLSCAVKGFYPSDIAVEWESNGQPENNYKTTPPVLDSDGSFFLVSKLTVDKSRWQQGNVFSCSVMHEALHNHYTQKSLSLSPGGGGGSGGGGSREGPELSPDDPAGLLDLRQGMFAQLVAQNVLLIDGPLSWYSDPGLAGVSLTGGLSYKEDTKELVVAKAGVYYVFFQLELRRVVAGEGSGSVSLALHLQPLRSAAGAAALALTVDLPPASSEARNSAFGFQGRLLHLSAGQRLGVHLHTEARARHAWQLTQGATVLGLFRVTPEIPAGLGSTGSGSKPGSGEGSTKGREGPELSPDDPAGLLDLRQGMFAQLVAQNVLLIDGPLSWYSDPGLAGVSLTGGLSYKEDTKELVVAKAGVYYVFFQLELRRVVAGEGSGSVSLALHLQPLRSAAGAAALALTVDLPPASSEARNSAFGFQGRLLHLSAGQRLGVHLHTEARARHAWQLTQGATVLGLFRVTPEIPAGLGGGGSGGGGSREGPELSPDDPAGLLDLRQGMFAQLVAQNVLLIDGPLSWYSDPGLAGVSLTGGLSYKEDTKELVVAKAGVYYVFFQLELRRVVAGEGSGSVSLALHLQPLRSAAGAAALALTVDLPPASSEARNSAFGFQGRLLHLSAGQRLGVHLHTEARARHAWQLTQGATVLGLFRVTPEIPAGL
T1 sequence (chain, as listed by the source, chain 2 of 2): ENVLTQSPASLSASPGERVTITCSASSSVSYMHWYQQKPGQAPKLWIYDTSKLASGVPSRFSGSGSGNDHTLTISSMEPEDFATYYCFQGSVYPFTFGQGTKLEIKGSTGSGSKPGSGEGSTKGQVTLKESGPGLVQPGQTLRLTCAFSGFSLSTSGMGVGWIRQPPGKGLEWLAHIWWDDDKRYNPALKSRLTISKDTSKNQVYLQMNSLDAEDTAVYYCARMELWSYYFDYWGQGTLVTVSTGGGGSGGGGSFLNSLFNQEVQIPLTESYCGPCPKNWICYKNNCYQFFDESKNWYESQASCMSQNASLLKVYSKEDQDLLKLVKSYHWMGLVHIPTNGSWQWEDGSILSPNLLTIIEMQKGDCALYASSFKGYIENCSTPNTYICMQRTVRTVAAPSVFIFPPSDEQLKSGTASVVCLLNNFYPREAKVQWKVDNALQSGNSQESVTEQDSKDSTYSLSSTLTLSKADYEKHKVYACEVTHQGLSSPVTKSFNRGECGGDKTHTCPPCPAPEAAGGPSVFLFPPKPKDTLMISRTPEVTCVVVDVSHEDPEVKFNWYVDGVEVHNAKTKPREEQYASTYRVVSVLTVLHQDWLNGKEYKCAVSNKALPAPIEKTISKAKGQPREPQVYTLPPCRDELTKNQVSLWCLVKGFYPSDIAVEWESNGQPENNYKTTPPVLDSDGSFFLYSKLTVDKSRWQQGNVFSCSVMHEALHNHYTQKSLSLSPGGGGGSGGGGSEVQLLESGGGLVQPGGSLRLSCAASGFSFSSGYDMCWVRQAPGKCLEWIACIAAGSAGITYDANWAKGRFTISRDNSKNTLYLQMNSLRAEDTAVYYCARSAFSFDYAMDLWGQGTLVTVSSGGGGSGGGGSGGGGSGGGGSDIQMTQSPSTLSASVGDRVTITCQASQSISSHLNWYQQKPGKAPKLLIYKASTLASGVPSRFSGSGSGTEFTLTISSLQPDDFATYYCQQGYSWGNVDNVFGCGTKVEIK

As for B1, the Kd in [1] worked out at 29.8 nM; in [2], 22.7 nM.

B2: SI-75P5 (other)
chain 1: EVQLQESGGGLVQAGDSLSLSCLVSGRSFNSYTMGWFRQAPGKEREFVAAILWSGPTTYYADSVKGRFTISRDNAKNTVYLQMNSLKPEDTAVYYCAAALGVLVLAPGNVYSYWGQGTQVTVSSGGGGSGGGGSEVQLVESGGGLVQPGGSLRLSCAASGFTISTNAMSWVRQAPGKGLEWIGVITGRDITYYASWAKGRFTISRDNSKNTLYLQMNSLRAEDTAVYYCARDGGSSAITSNNIWGQGTLVTVSSASTKGPSVFPLAPSSKSTSGGTAALGCLVKDYFPEPVTVSWNSGALTSGVHTFPAVLQSSGLYSLSSVVTVPSSSLGTQTYICNVNHKPSNTKVDKRVEPKSCDKTHTCPPCPAPEAAGGPSVFLFPPKPKDTLMISRTPEVTCVVVDVSHEDPEVKFNWYVDGVEVHNAKTKPREEQYNSTYRVVSVLTVLHQDWLNGKEYKCAVSNKALPAPIEKTISKAKGQPREPQVYTLPPSRDELTKNQVSLSCAVKGFYPSDIAVEWESNGQPENNYKTTPPVLDSDGSFFLVSKLTVDKSRWQQGNVFSCSVMHEALHNHYTQKSLSLSPGGGGGSGGGGSDVVMTQSPSSVSASVGDRVTITCQASQNIRTYLSWYQQKPGKAPKLLIYAAANLASGVPSRFSGSGSGTDFTLTISDLEPGDAATYYCQSTYLGTDYVGGAFGGGTKLTVLGGGGSGGGGSGGGGSGGGGSEVQLVESGGGLVQPGGSLRLSCTASGFTISSYHMQWVRQAPGKGLEYIGTISSGGNVYYASSARGRFTISRPSSKNTVDLQMNSLRAEDTAVYYCARDSGYSDPMWGQGTLVTVSS
chain 2: QVQLVQSGGGLVQAGGSLSLSCAFSGRTFSMYTMGWFRQAPGKEREFVAANRGRGLSPDIADSVNGRFTISRDNAKNTLYLQMDSLKPEDTAVYYCAADLQYGSSWPQRSSAEYDYWGQGTTVTVSSGGGGSGGGGSDVVMTQSPSTLSASVGDRVTINCQASESISSWLAWYQQKPGKAPKLLIYEASKLASGVPSRFSGSGSGTEFTLTISSLQPDDFATYYCQGYFYFISRTYVNSFGGGTKVEIKRTVAAPSVFIFPPSDEQLKSGTASVVCLLNNFYPREAKVQWKVDNALQSGNSQESVTEQDSKDSTYSLSSTLTLSKADYEKHKVYACEVTHQGLSSPVTKSFNRGECGGDKTHTCPPCPAPEAAGGPSVFLFPPKPKDTLMISRTPEVTCVVVDVSHEDPEVKFNWYVDGVEVHNAKTKPREEQYNSTYRVVSVLTVLHQDWLNGKEYKCAVSNKALPAPIEKTISKAKGQPREPQVYTLPPSRDELTKNQVSLWCLVKGFYPSDIAVEWESNGQPENNYKTTPPVLDSDGSFFLYSKLTVDKSRWQQGNVFSCSVMHEALHNRFTQKSLSLSPGGGGGSGGGGSDIQMTQSPSTLSASVGDRVTITCQASQSISSHLNWYQQKPGKAPKLLIYKASTLASGVPSRFSGSGSGTEFTLTISSLQPDDFATYYCQQGYSWGNVDNVFGGGTKVTVLGGGGSGGGGSGGGGSGGGGSEVQLLESGGGLVQPGGSLSLSCAASGFSFSSGYDMCWVRQAPGKGLEWIACIAAGSAGITYDANWAKGRFTISRDNSKNTLYLQMNSLRAEDTAVYYCARSAFSFDYAMDLWGQGTLVTVSS
notes: penta-miniGNC; D1 αEGFR VHH, D2 αHER3 VHH, D3 αCD3 (Fab), D4 α4-1BB, D5 αPD-L1
B2: the dissociation constant (Kd) was 26.1 nM in assay [3], 3.25 nM in assay [4], 23.5 nM in [5] and 23.3 nM in [6].

B3: SI-49PM1 (other)
chain 1: FLNSLFNQEVQIPLTESYCGPCPKNWICYKNNCYQFFDESKNWYESQASCMSQNASLLKVYSKEDQDLLKLVKSYHWMGLVHIPTNGSWQWEDGSILSPNLLTIIEMQKGDCALYASSFKGYIENCSTPNTYICMQRTVGGGGSGGGGSGGGGSGGGGSFLNSLFNQEVQIPLTESYCGPCPKNWICYKNNCYQFFDESKNWYESQASCMSQNASLLKVYSKEDQDLLKLVKSYHWMGLVHIPTNGSWQWEDGSILSPNLLTIIEMQKGDCALYASSFKGYIENCSTPNTYICMQRTVVDGGGGSGGGGSEVQLVESGGGLVQPGGSLRLSCAASGFTISTNAMSWVRQAPGKGLEWIGVITGRDITYYASWAKGRFTISRDNSKNTLYLQMNSLRAEDTAVYYCARDGGSSAITSNNIWGQGTLVTVSSASTKGPSVFPLAPSSKSTSGGTAALGCLVKDYFPEPVTVSWNSGALTSGVHTFPAVLQSSGLYSLSSVVTVPSSSLGTQTYICNVNHKPSNTKVDKRVEPKSCDKTHTCPPCPAPEAAGGPSVFLFPPKPKDTLMISRTPEVTCVVVDVSHEDPEVKFNWYVDGVEVHNAKTKPREEQYASTYRVVSVLTVLHQDWLNGKEYKCAVSNKALPAPIEKTISKAKGQPREPQVCTLPPSRDELTKNQVSLSCAVKGFYPSDIAVEWESNGQPENNYKTTPPVLDSDGSFFLVSKLTVDKSRWQQGNVFSCSVMHEALHNHYTQKSLSLSPGGGGGSGGGGSRSLVESGGGLVQPGGSLRLSCTASGFTISSYHMQWVRQAPGKCLEYIGTISSGGNVYYASSARGRFTISRPSSKNTVDLQMNSLRAEDTAVYYCARDSGYSDPMWGQGTLVTVSSGGGGSGGGGSGGGGSGGGGSDVVMTQSPSSVSASVGDRVTITCQASQNIRTYLSWYQQKPGKAPKLLIYAAANLASGVPSRFSGSGSGTDFTLTISDLEPGDAATYYCQSTYLGTDYVGGAFGCGTKVEIK
chain 2: ENVLTQSPASLSASPGERVTITCSASSSVSYMHWYQQKPGQAPKLWIYDTSKLASGVPSRFSGSGSGNDHTLTISSMEPEDFATYYCFQGSVYPFTFGQGTKVTVLGGGGSGGGGSGGGGSGGGGSQVTLKESGPGLVQPGQTLSLTCAFSGFSLSTSGMGVGWIRQPPGKGLEWLAHIWWDDDKRYNPALKSRLTISKDTSKNQVYLQMNSLDAEDTAVYYCARMELWSYYFDYWGQGTLVTVSSGGGGSGGGGSDVVMTQSPSTLSASVGDRVTINCQASESISSWLAWYQQKPGKAPKLLIYEASKLASGVPSRFSGSGSGTEFTLTISSLQPDDFATYYCQGYFYFISRTYVNSFGGGTKVEIKRTVAAPSVFIFPPSDEQLKSGTASVVCLLNNFYPREAKVQWKVDNALQSGNSQESVTEQDSKDSTYSLSSTLTLSKADYEKHKVYACEVTHQGLSSPVTKSFNRGECGGDKTHTCPPCPAPEAAGGPSVFLFPPKPKDTLMISRTPEVTCVVVDVSHEDPEVKFNWYVDGVEVHNAKTKPREEQYNSTYRVVSVLTVLHQDWLNGKEYKCAVSNKALPAPIEKTISKAKGQPREPQVYTLPPSRDELTKNQVSLWCLVKGFYPSDIAVEWESNGQPENNYKTTPPVLDSDGSFFLYSKLTVDKSRWQQGNVFSCSVMHEALHNRFTQKSLSLSPGGGGGSGGGGSDIQMTQSPSTLSASVGDRVTITCQASQSISSHLNWYQQKPGKAPKLLIYKASTLASGVPSRFSGSGSGTEFTLTISSLQPDDFATYYCQQGYSWGNVDNVFGGGTKVTVLGGGGSGGGGSGGGGSGGGGSEVQLLESGGGLVQPGGSLSLSCAASGFSFSSGYDMCWVRQAPGKGLEWIACIAAGSAGITYDANWAKGRFTISRDNSKNTLYLQMNSLRAEDTAVYYCARSAFSFDYAMDLWGQGTLVTVSS
notes: control penta-miniGNC; D1 NKG2D (tandem dimer), D2 αCD19, D3 αCD3 (Fab), D4 α4-1BB, D5 αPD-L1
Regarding B3, the Kd in assay [7] was found to be 30.2 nM; in assay [8] it was 2.74 nM; in assay [9], 2.23 nM; in [10], 5.5 nM; in [11], 24.5 nM.
